From patent US20210398607A1, “METHODS FOR DESIGNING ANTIBODY SMALL-MOLECULE CONJUGATES” (priority 2020, published 2021)
Residue numbers refer to the chain shown, from its start. Where two headings read alike, the source gives them in different places.

What was measured:
mSA = conditions: read-out: biotin/mSA affinity, fluorescence polarization spectroscopy, cited from earlier work
[1] = target: T1, mSA (monomeric streptavidin construct), wild type; assay: SPR, immobilized mSA
T1 construct: also called mSAWT
T1 chain: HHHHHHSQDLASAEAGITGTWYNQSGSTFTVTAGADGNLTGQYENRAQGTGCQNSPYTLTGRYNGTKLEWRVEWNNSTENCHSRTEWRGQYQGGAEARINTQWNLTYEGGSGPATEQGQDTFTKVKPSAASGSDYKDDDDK

[2] = target: T1, mSA (monomeric streptavidin construct), …; assay: SPR
[3] = target: T1, mSA (monomeric streptavidin construct), …; assay: SPR; variant v119
[4] = target: T1, mSA (monomeric streptavidin construct), …; assay: SPR, conjugate injected at 0.5, 1, 2.5, 5, 10 nM over immobilized mSAWT; fit curve; replicate 3
[5] = target: T1, mSA (monomeric streptavidin construct), …; assay: SPR, conjugate injected at 0.5, 1, 2.5, 5, 10 nM over immobilized mSAWT; fit curve; one of three replicates
[6] = target: T1, mSA (monomeric streptavidin construct), …; assay: SPR, conjugate injected at 0.5, 1, 2.5, 5, 10 nM over immobilized mSAWT; fit curve; replicate 2
[7] = target: T1, mSA (monomeric streptavidin construct), …; assay: SPR, conjugate injected at 0.5, 1, 2.5, 5, 10 nM over immobilized mSAWT; fit curve; one of three replicates
[8] = target: T1, mSA (monomeric streptavidin construct), …; assay: SPR, conjugate injected at 0.5, 1, 2.5, 5, 10 nM over immobilized mSAWT; fit curve; replicate 3
[9] = target: T1, mSA (monomeric streptavidin construct), …; assay: SPR; variant v149
[10] = target: T1, mSA (monomeric streptavidin construct), …; assay: SPR, conjugate injected at 0.5, 1, 2.5, 5, 10 nM over immobilized mSAWT; fit curve; replicate 2
[11] = target: T2, mSAS27A (mSA with single mutation S27A); assay: SPR
T2 chain: T1 chain with S27A

[12] = target: T2, mSAS27A (mSA with single mutation S27A); assay: SPR, conjugate injected at 62.5, 125, 250, 500 nM and 1 µM over immobilized mSAS27A; fit curve; one of three replicates
[13] = target: T2, mSAS27A (mSA with single mutation S27A); assay: SPR; reference mSAS27A/biotin
[14] = target: T2, mSAS27A (mSA with single mutation S27A); assay: SPR, conjugate injected at 62.5, 125, 250, 500 nM and 1 uM over immobilized mSAS27A; biological replicate 3; fit curve
[15] = target: T2, mSAS27A (mSA with single mutation S27A); assay: SPR, conjugate injected at 62.5, 125, 250, 500 nM and 1 uM over immobilized mSAS27A; biological replicate 2; fit curve
[16] = target: T1, mSA (monomeric streptavidin construct), …; assay: SPR, conjugate injected at 1, 2.5, 5, 10, 20 nM over immobilized mSAWT; fit curve; one of three replicates
[17] = target: T1, mSA (monomeric streptavidin construct), …; assay: SPR, conjugate injected at 1, 2.5, 5, 10, 20 nM over immobilized mSAWT; fit curve; replicate 2
[18] = target: T1, mSA (monomeric streptavidin construct), …; assay: SPR, 25 °C, immobilized mSA
[19] = target: T1, mSA (monomeric streptavidin construct), …; assay: SPR, 25 °C; reference mSA on immobilized biotin
[20] = target: T1, mSA (monomeric streptavidin construct), …; assay: SPR, conjugate injected at 1, 2.5, 5, 10, 20 nM over immobilized mSAWT; fit curve; replicate 3
[21] = target: T2, mSAS27A (mSA with single mutation S27A); assay: SPR, conjugate injected at 12.5, 25, 50, 100 and 200 nM over immobilized mSAS27A; biological replicate 2; fit curve
[22] = target: T2, mSAS27A (mSA with single mutation S27A); assay: SPR, conjugate injected at 12.5, 25, 50, 100, 200 nM over immobilized mSAS27A; fit curve; one of three replicates
[23] = target: T2, mSAS27A (mSA with single mutation S27A); assay: SPR, conjugate injected at 12.5, 25, 50, 100 and 200 nM over immobilized mSAS27A; biological replicate 3; fit curve
[24] = target: T1, mSA (monomeric streptavidin construct), …; assay: SPR, conjugate injected at 0.5, 1, 2.5, 5, 10 nM over immobilized mSAWT; fit curve; one of three replicates
[25] = target: T1, mSA (monomeric streptavidin construct), …; assay: SPR, conjugate injected at 0.5, 1, 2.5, 5, 10 nM over immobilized mSAWT; fit curve; replicate 2
[26] = target: T1, mSA (monomeric streptavidin construct), …; assay: SPR, conjugate injected at 0.5, 1, 2.5, 5, 10 nM over immobilized mSAWT; fit curve; replicate 3
[27] = target: T1, mSA (monomeric streptavidin construct), …; assay: SPR, conjugate injected at 1, 2.5, 5, 10, 20 nM; fit curve; replicate 3. The panel title prints 'against immobilized mSAS27A'; target taken as mSAWT after the legend of FIG. 6B and the matching data points of FIG. 6C
[28] = target: T1, mSA (monomeric streptavidin construct), …; assay: SPR, conjugate injected at 1, 2.5, 5, 10, 20 nM; fit curve; replicate 2. The panel title prints 'against immobilized mSAS27A'; target taken as mSAWT after the legend of FIG. 6B (other two replicates against mSAWT are in FIG. 11) and the matching data points of FIG. 6C
[29] = target: T1, mSA (monomeric streptavidin construct), …; assay: SPR, conjugate injected at 1, 2.5, 5, 10, 20 nM; fit curve; replicate 2. The panel title prints 'against immobilized mSAS27A'; target taken as mSAWT after the legend of FIG. 6B and the matching data points of FIG. 6C
[30] = target: T1, mSA (monomeric streptavidin construct), …; assay: SPR, conjugate injected at 1, 2.5, 5, 10, 20 nM over immobilized mSAWT; fit curve; one of three replicates
[31] = target: T1, mSA (monomeric streptavidin construct), …; assay: SPR, single-cycle injections of 2.5, 5, 10, 20 and 50 nM conjugate; target mSAWT by the text, not printed on the sheet; fit curve

For `O=C(O)CCCC[C@@H]1SC[C@@H]2NC(=O)N[C@@H]21` [biotin], the Kd (mSA; 4° C.) is given as 2.8 ± 0.5 nM and the Kd (mSA; 37° C.) is given as 5.5 ± 0.2 nM.

B1: 4NBX.B nanobody, wild type (unconjugated) (VHH)
VHH: QVQLQESGGGLAQAGGSLRLSCAASGRTFSMDPMAWFRQPPGKEREFVAAGSSTGRTTYYADSVKGRFTISRDNAKNTVYLQMNSLKPEDTAVYYCAAAPYGANWYRDEYAYWGQGTQVTVSS
notes: also called Wildtype 4NBX.B; 4NBX.B WT
B1: no binding (tested: 100 nM) [1].

B2: 4NBX.B-biotin103 v119 (VHH)
VHH: B1 VHH with M31H, D32A, A103C, N104S, W105H
For B2, the “fold KD improvement over 4NBX.B-biotin103 WT” value [2] was ~2 fold, the Kd [3] was 0.9 nM and the Kd [4] was 1.11 nM. The koff [4] was 0.00213 s⁻¹, the kon [4] was 1.93e+06 M⁻¹ s⁻¹ and the Kd [5] was 0.78 nM. The koff [5] was 0.00177 s⁻¹, the kon [5] was 2.3e+06 M⁻¹ s⁻¹ and the Kd [6] was 0.76 nM. For the same molecule, the koff [6] was 0.00186 s⁻¹ and the kon [6] was 2.45e+06 M⁻¹ s⁻¹.

B3: 4NBX.B-biotin103 v149 (VHH)
VHH: B1 VHH with M31R, D32S, A103C, N104A, W105R
In the case of B3, the “fold KD improvement over biotin/mSAWT” value [2] is reported as > 20 fold, the “fold faster kon compared to v119” value [2] is reported as ~4 fold and the “koff ratio relative to v119” value [2] is reported as ~0.2 fold. It also gave a Kd [7] of 0.11 nM, a koff [7] of 0.000923 s⁻¹ and a kon [7] of 8.7e+06 M⁻¹ s⁻¹. It also gave a Kd [8] of 0.14 nM, a koff [8] of 0.00081 s⁻¹ and a kon [8] of 5.84e+06 M⁻¹ s⁻¹. It also gave a Kd [9] of 0.12 nM, a Kd [10] of 0.11 nM and a koff [10] of 0.00106 s⁻¹. It also gave a kon [10] of 9.78e+06 M⁻¹ s⁻¹.

B4: 4NBX.B-biotin103 (VHH)
VHH: B1 VHH with A103C
notes: also called 4NBX.B-biotin103 WT
Work on B4 yielded a Kd [11] of 245 nM, a Kd [12] of 279 nM and a koff [12] of 0.12 s⁻¹. For the same molecule, the kon [12] was 430000 M⁻¹ s⁻¹, the “fold affinity improvement over biotin/mSAS27A” value [13] was 5 fold and the Kd [14] was 188 nM. For the same molecule, the koff [14] was 0.149 s⁻¹, the kon [14] was 790000 M⁻¹ s⁻¹ and the Kd [15] was 269 nM. For the same molecule, the koff [15] was 0.296 s⁻¹, the kon [15] was 1.1e+06 M⁻¹ s⁻¹ and the Kd [16] was 1.86 nM. The koff [16] was 0.00221 s⁻¹, the kon [16] was 1.19e+06 M⁻¹ s⁻¹ and the Kd [17] was 1.59 nM. The koff [17] was 0.00197 s⁻¹, the kon [17] was 1.24e+06 M⁻¹ s⁻¹ and the Kd [18] was 1.8 nM. The “fold affinity improvement over biotin/mSA” value [19] was 4 fold, the Kd [20] was 1.92 nM and the koff [20] was 0.00225 s⁻¹. It also gave a kon [20] of 1.17e+06 M⁻¹ s⁻¹.

B5: 4NBX.B-biotin103 v186_Fr (VHH)
VHH: QVQLQESGGGLVQAGGSLRLSCAASGRTFSRSPMAWYRQPPGKEREFVAAGSSTGTTTYYADSVKGRFTISRDNAKNTVYLQMNSLKPEDTAVYYCAAAPLGCARKFAESAYWGQGTQVTVSS
notes: also called wildtype v186_Fr
In the case of B5, the Kd [11] is reported as 54 nM, the “fold KD improvement (over biotin/mSAS27A)” value [11] is reported as ~20 fold and the Kd [2] is reported as 0.2 nM. The “fold KD improvement over biotin/mSAWT” value [2] was > 20 fold, the Kd [21] was 56.3 nM and the koff [21] was 0.0879 s⁻¹. For the same molecule, the kon [21] was 1.56e+06 M⁻¹ s⁻¹, the Kd [22] was 49.6 nM and the koff [22] was 0.0912 s⁻¹. It also gave a kon [22] of 1.84e+06 M⁻¹ s⁻¹, a Kd [23] of 55.5 nM and a koff [23] of 0.0872 s⁻¹. It also gave a kon [23] of 1.57e+06 M⁻¹ s⁻¹, a Kd [24] of 0.23 nM and a koff [24] of 0.0011 s⁻¹. It also gave a kon [24] of 4.79e+06 M⁻¹ s⁻¹, a Kd [25] of 0.16 nM and a koff [25] of 0.00079 s⁻¹. The kon [25] was 5.04e+06 M⁻¹ s⁻¹, the Kd [26] was 0.21 nM and the koff [26] was 0.00089 s⁻¹. For the same molecule, the kon [26] was 4.26e+06 M⁻¹ s⁻¹.

B6: 2X89.A-CCAA-biotin57 (VHH)
VHH: QVQLQESGGGSVQAGGSLRLSCAASGYTDSRYAMAWFRQAPGKEREWVARINSGRDCTYYADSVKGRFTFSQDNAKNTVYLQMDSLEPEDTATYYCATDIPLRARDIVAKGGDGFRYWGQGTQVTVSS
notes: also called parent conjugate
With B6 the Kd [2] was 0.8 nM, the Kd [27] was 0.54 nM and the koff [27] was 0.000555 s⁻¹. It also gave a kon [27] of 1.03e+06 M⁻¹ s⁻¹, a kon [28] of 710000 M⁻¹ s⁻¹ and a Kd [29] of 1.01 nM. For the same molecule, the koff [29] was 0.000718 s⁻¹, the Kd [30] was 0.82 nM and the koff [30] was 0.000771 s⁻¹. The kon [30] was 940000 M⁻¹ s⁻¹.

B7: 2X89.A-CCAA-biotin57 v5 (VHH)
VHH: QVQLQESGGGLVQAGGSLRLSCAASGYTSSQYAMGWYRQAPGKEREWVATISAGADCTYYADSVKGRFTFSQDNAKNTVYLQMDSLKPEDTAVYYCATDSPLQATLITAKGGKGFQYWGQGTQVTVSS
notes: also called variant v5; final variant v5
B7 showed a Kd [31] of 2.78 nM, a koff [31] of 0.00122 s⁻¹ and a kon [31] of 440000 M⁻¹ s⁻¹.
